Values of other authors as cited in paper PMC2757418.

Molecular target: netrin-1 (UniProt O95631)

Substance: DCC (from UniProt P43146)
- Kd: 10 nM
